Data taken from patent publication US20060029946A1 (Scripps Research, published 2006).

Experiments:
[1] = target: T1, Cdc42-GTPγS (activated Cdc42) (UniProt P60953 1-191); test: apparent equilibrium binding constant; fluorescence titration of a fixed concentration of labeled WASP fragment with cdc42-GTPγS
T1 construct: also called GTPγS-Cdc42

[2] = target: T1, Cdc42-GTPγS (activated Cdc42)
Rac (activated GTPase) = Rac (activated GTPase) (UniProt P63000 1-192); test: fluorescence response of the I-SO WASP biosensor with activated GTPases
RhoA (activated GTPase) = RhoA (activated GTPase) (UniProt P61586 1-193); test: as above
Sequence of RhoA (activated GTPase) (P61586 whole entry): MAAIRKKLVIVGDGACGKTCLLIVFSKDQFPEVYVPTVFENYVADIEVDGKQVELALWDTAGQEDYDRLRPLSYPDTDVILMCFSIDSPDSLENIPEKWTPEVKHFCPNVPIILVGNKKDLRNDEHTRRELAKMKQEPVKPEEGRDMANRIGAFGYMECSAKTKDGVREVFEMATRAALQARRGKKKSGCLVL

T1 sequence (P60953 whole entry, the tested form may be a part): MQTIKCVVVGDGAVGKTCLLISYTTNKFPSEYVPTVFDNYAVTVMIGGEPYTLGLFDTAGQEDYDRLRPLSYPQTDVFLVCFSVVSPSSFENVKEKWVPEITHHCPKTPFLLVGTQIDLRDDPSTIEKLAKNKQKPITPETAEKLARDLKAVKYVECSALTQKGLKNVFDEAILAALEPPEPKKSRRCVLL

Binder | Kd [1] | change in fluorescence intensity [2] | increase in fluorescence intensity [2] | binding result (Rac (activated GTPase)) | binding result (RhoA (activated GTPase))
Wiskott Aldrich Syndrome Protein (WASP) fragment, residues 201-320, F271C, labeled with S-SO dye 2e (other, also called labeled WASP fragment; WASP conjugate; not shown: C-terminal 6His fusion from pET23a) DIQNPDITSSRYRGLPAPGPSPADKKRSGKKKISKADIGAPSGFKHVSHVGWDPQNGFDVNNLDPDLRSLCSRAGISEAQLTDAETSKLIYDFIEDQGGLEAVRQEMRRQEPLPPPPPPS | 150 nM | 3 fold |  |  | 
WASP fragment F271C labeled with I-SO dye (other, also called I-SO-WASP biosensor; I-SO labeled WASP fragment; not shown: C-terminal 6His fusion from pET23a) DIQNPDITSSRYRGLPAPGPSPADKKRSGKKKISKADIGAPSGFKHVSHVGWDPQNGFDVNNLDPDLRSLCSRAGISEAQLTDAETSKLIYDFIEDQGGLEAVRQEMRRQEPLPPPPPPS |  |  | 2.8 fold | no binding | no binding
